Here are results for five molecules from patent US20240269292A1.

Series [1] is classed as physicochemical. Particulars: EY005-stearyl solubilized in methyl laurate, incubated 1 hour, HPLC.
Procedure: Kd values were calculated as [unbound]/[bound] fraction prodrug under each condition.
Series [2] deals with Albumin (Homo sapiens, UniProt P02768). Put plainly: Fluorescence microscopy of complexation of FITC-labeled drug with particulates. Type of series: binding.
From the text: (§1) As described herein, formation of MTT-prodrug-complex particulates can be verified experimentally by direct visualization. For example, the MTT-prodrug EY005-stearyl was fluorescently labeled with fluorescein isothiocyanate (FITC) and admixed with different complexation agents. The resultant mixture was then visualized under direct fluorescence microscopy. […] In contrast, FITC-labeled EY005-stearyl was not observed to form drug-complex particulates with silica microbeads (see FIG. 24A-24D), indicating the process of complexation and drug-complex particulate formation is highly dependent on favorable noncovalent interaction between drug and complexation agent.
(§2) Further, this noncovalent interaction is specifically mediated by the conjugation moiety of the MTT-prodrug. FITC-labeled EY005-stearyl that had been admixed with complexation agent was treated with an aqueous solution of carboxyesterase (0.1 μg/mL) to hydrolyze the ester bond of the prodrug, releasing the fluorescent peptide.
as §1, with “(FIG. 24C),” for “(see FIG. 24A-24D),”

Test in series [3]: as above
Type of series: physicochemical. Particulars: for Fluorescence after carboxyesterase: carboxyesterase 0.1 μg/mL.
From the text: as §1, §2
as §1, with “(FIG. 24C),” for “(see FIG. 24A-24D),”

Series [4] concerns T1, EY005-stearyl prodrug (H-d-Arg-DMT-Lys-Phe(-O)-stearyl).
T1 sequence: RYKF

Series [5] has as its target Albumin. As to the kind of experiment: pull-down by centrifugation in methyl laurate after 1 hour incubation, HPLC quantification.
Series [6] concerns the target Albumin. Put plainly: pull-down by centrifugation in methyl laurate after 1 hour incubation, HPLC quantification; unitless ratio.

Non-standard residues stand in square brackets, D forms with d. No end group written: not given here. *: point of attachment. Dmt = Cc1cc(O)cc(C)c1C[C@H](N)C(=O)O; stearyl ester = CCCCCCCCCCCCCCCCCCO*

Regarding `OC[C@H]1O[C@@H]2O[C@H]3[C@H](O)[C@@H](O)[C@@H](O[C@H]4[C@H](O)[C@@H](O)[C@@H](O[C@H]5[C@H](O)[C@@H](O)[C@@H](O[C@H]6[C@H](O)[C@@H](O)[C@@H](O[C@H]7[C@H](O)[C@@H](O)[C@@H](O[C@H]8[C@H](O)[C@@H](O)[C@@H](O[C@H]9[C@H](O)[C@@H](O)[C@@H](O[C@H]1[C@H](O)[C@H]2O)O[C@@H]9CO)O[C@@H]8CO)O[C@@H]7CO)O[C@@H]6CO)O[C@@H]5CO)O[C@@H]4CO)O[C@@H]3CO` [Cyclodextrin gamma], the “μg EY005-stearyl complexed per mg complexation agent” value in series [1] is 2.3 μg per mg complexation agent.
With “FITC-labeled EY005 native peptide: EY005 native peptide labeled with fluorescein isothiocyanate ([dR][Dmt]KF-OH; also: FITC label, site not given here)”, the results for the Complexation by fluorescence result in series [2] and in series [3] (silica microbeads) were “minimal complexation” and “interacted with silica microbeads creating fluorescent round figures”, respectively.
As to “FITC-labeled EY005-stearyl prodrug: MTT-prodrug EY005-stearyl fluorescently labeled with fluorescein isothiocyanate (FITC) ([dR][Dmt]KF-{stearyl ester}; also: FITC label, site not given here)”, the Complexation by fluorescence entry in series [2] was “bright fluorescence”; in series [3] (silica microbeads), “no evidence of complexation”. Further, the Fluorescence after carboxyesterase result is recorded as “reduced levels of fluorescence” in series [2] (carboxyesterase 0.1 μg/mL); “reduced levels of fluorescence” in series [3] (cyclodextrin); “reduced levels of fluorescence” in series [3] (lecithin); “reduced levels of fluorescence” in series [3] (magnesium stearate); “did not alter extremely low levels of fluorescence” in series [3] (silica microbeads).
On to carboxyesterase, for which the “cleavage of the prodrug ester bond (HPLC)” value in series [4] is given as “Incubation of EY005-stearyl with carboxyesterase produced rapid cleavage of the prodrug ester bond, releasing EY005”.
In the case of H-[dR][Dmt]KF-{stearyl ester} (also: DMT isomer not given here) [EY005-stearyl prodrug (H-d-Arg-DMT-Lys-Phe(-O)-stearyl)], the µg EY005-stearyl complexed per mg complexation agent (binding capacity) (µg per mg complexation agent) in series [5] turned out to be 4.5. For the same molecule, in series [6], the Calculated Kd ([unbound]/[bound] fraction of prodrug) was 1.34.
